From the supplement of paper PMC11908140

B1: library; numbered along this chain (parent)
chain: MRKPRAAVGSGHRKQAASQEGRQKHAKNNSQAKPSACDGLARQPEEVVLQASVSSYHLFRDVAEVTAFRGSLLSWYDQEKRDLPWRRRAEDEMDLDRRAYAVWVSEVMLQQTQVATVINYYTGWMQKWPTLQDLASASLEEVNQLWAGLGYYSRGRRLQEGARKVVEELGGHMPRTAETLQQLLPGVGRYTAGAIASIAFGQATGVVDGNVARVLCRVRAIGADPSSTLVSQQLWGLAQQLVDPARPGDFNQAAMELGATVCTPQRPLCSQCPVESLCRARQRVEQEQLLASGSLSGSPDVEECAPNTGQCHLCLPPSEPWDQTLGVVNFPRKASRKPPREESSATCVLEQPGALGAQILLVQRPNSGLLAGLWEFPSVTWEPSEQLQRKALLQELQRWAGPLPATHLRHLGEVVHTFSHIKLTYQVYGLALEGQTPVTTVPPGARWLTQEEFHTAAVSTAMKKVFRVYQGQQPGTCMGSKRSQVSSPCSRKKPRMGQQVLDNFFRSHISTDAHSLNSAAQ

Variants of: B1
Test: 8OG:A repair function score (normalized; synonymous = 0, nonsense = -1) (normalized log-likelihood score); higher = more repair activity (WT-like)
Settings: with 8OG:A DNA repair reporter (GFP) in HEK-293 MUTYH KO cells
In short: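 After 72 h, viable mCherry+ cells were split into GFP+ (repair) and GFP− bins in three replicates per tile. These cells were MUTYH knockout HEK-293 cells holding lentiviral MUTYH cDNA NNN codon-scan libraries, kept in 10 pg/ml doxycycline and co-transfected with mCherry plus an 8OG:A GFP repair reporter. Sequencing of tile amplicons gave per-tile Rosace fitness scores, normalized into a repair function score anchored on synonymous and nonsense distributions. Synonymous medians were fixed at 0, nonsense at -1, and variants under 300 counts per million at the start were removed.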
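Note: cells sorted at 72 h after reporter transfection.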

Row | Variant | 8OG:A repair function score
1 | MRKPRAAVGSGHRKQAASQEGRQKHAKNNSQAKPSACDGLARQPEEVVLQASVSSYHVFRDVAEVTAFRGSLLSWYDQEKRDLPWRRRAEDEMDLDRRAYAVWVSEVMLQQTQVATVINYYTGWMQKWPTLQDLASASLEEVNQLWAGLGYYSRGRRLQEGARKVVEELGGHMPRTAETLQQLLPGVGRYTAGAIASIAFGQATGVVDGNVARVLCRVRAIGADPSSTLVSQQLWGLAQQLVDPARPGDFNQAAMELGATVCTPQRPLCSQCPVESLCRARQRVEQEQLLASGSLSGSPDVEECAPNTGQCHLCLPPSEPWDQTLGVVNFPRKASRKPPREESSATCVLEQPGALGAQILLVQRPNSGLLAGLWEFPSVTWEPSEQLQRKALLQELQRWAGPLPATHLRHLGEVVHTFSHIKLTYQVYGLALEGQTPVTTVPPGARWLTQEEFHTAAVSTAMKKVFRVYQGQQPGTCMGSKRSQVSSPCSRKKPRMGQQVLDNFFRSHISTDAHSLNSAAQ [L58V] | -0.00997
2 | MRKPRAAVGSGHRKQAASQEGRQKHAKNNSQAKPSACDGLARQPEEVVLQASVSSYHLFRDVAEVTAFRGSLLSWYDQEKRDLPWRRRAEDEMDLDRRAYAVWVSEVMLQQTQVATVINYYTGWMQKWPTLQDLASASLEEVNQLWAGLGYYSRGRRLQEGARKVVEELGGHMPRTAETLQQLLPGVGRYTAGAIASIAFGQATGVVDGNVARVLCRVRAIGADPSSTLVSQQLWGLAQQLVDPARPGDFNQAAMELGATVCTPQRPLCSQCPVESLCRARQRVEQEQLLASGSLSGSPDVEECAPNTGQCHLCLPPSEPWDQTLGVVNFPRKASRKPPREESSATCVLEQPGALGAQCLLVQRPNSGLLAGLWEFPSVTWEPSEQLQRKALLQELQRWAGPLPATHLRHLGEVVHTFSHIKLTYQVYGLALEGQTPVTTVPPGARWLTQEEFHTAAVSTAMKKVFRVYQGQQPGTCMGSKRSQVSSPCSRKKPRMGQQVLDNFFRSHISTDAHSLNSAAQ [I359C] | -0.249
3 | MRKPRAAVGSGHRKQAASQEGRQKHAKNNSQAKPSACDGLARQPEEVVLQASVSSYHLFRDVAEVTAFRGSLLSWYDQEKRDLPWRRRAEDEMDLDRRAYAVWVSEVMLQQTQVATVINYYTGWMQKWPTLQDLASASLEEVNQLWAGLGYYSRGRRLQEGARKVVEELGGHMPRTAETLQQLLPGVGRYTAGAIASIAFGQATGVVDGNVARVLCRVRAIGADPSSTLVSQQLWGLAQQLVDPARPGDFNTAAMELGATVCTPQRPLCSQCPVESLCRARQRVEQEQLLASGSLSGSPDVEECAPNTGQCHLCLPPSEPWDQTLGVVNFPRKASRKPPREESSATCVLEQPGALGAQILLVQRPNSGLLAGLWEFPSVTWEPSEQLQRKALLQELQRWAGPLPATHLRHLGEVVHTFSHIKLTYQVYGLALEGQTPVTTVPPGARWLTQEEFHTAAVSTAMKKVFRVYQGQQPGTCMGSKRSQVSSPCSRKKPRMGQQVLDNFFRSHISTDAHSLNSAAQ [Q252T] | -0.856
4 | MRKPRAAVGSGHRKQAASQEGRQKHAKNNSQAKPSACDGLARQPEEVVLQASVSSYHLFRDVAEVTAFRGSLLSWYDQEKRDLPWRRRAEDEMDLDRRAYAVWVSEVMLQQTQVATVINYYTGWMQKWPTLQDLASASLEEVNQLWAGLGYYSRGRRLQEGARKVVEELGGHMPRTAETLQQLLPGVGRYTAGAIASIAFGQATGVVDGNVARVLCRVRAIGADPSSTLVSQQLWGLAQQLVDPRRPGDFNQAAMELGATVCTPQRPLCSQCPVESLCRARQRVEQEQLLASGSLSGSPDVEECAPNTGQCHLCLPPSEPWDQTLGVVNFPRKASRKPPREESSATCVLEQPGALGAQILLVQRPNSGLLAGLWEFPSVTWEPSEQLQRKALLQELQRWAGPLPATHLRHLGEVVHTFSHIKLTYQVYGLALEGQTPVTTVPPGARWLTQEEFHTAAVSTAMKKVFRVYQGQQPGTCMGSKRSQVSSPCSRKKPRMGQQVLDNFFRSHISTDAHSLNSAAQ [A245R] | -0.124
5 | MRKPRAAVGSGHRKQAASQEGRQKHAKNNSQAKPSACDGLARQPEEVVLQASVSSYHLFRDVAEVTAFRGSLLSWYDQEKRDLPWRRRAEDEMDLDRRAYAVWVSEVMLQQTQVATVINYYTGWMQKWPTLQDLASASLEEVNQLWAGLGYYSRGRRLQEGARKVVEELGGHMPRTAETLQQLLPGVGRYTAGAIASIAFGQATGVVDGNVARVLCRVRAIGADPSSTLVSQQLWGLAQQLVDPARPGDFNQAAMELGATVCTPQRPLCSQCPVESLCRARQRVEQEQLLASGSLSGSPDVEECAPNTGQCHLCLPPSEVWDQTLGVVNFPRKASRKPPREESSATCVLEQPGALGAQILLVQRPNSGLLAGLWEFPSVTWEPSEQLQRKALLQELQRWAGPLPATHLRHLGEVVHTFSHIKLTYQVYGLALEGQTPVTTVPPGARWLTQEEFHTAAVSTAMKKVFRVYQGQQPGTCMGSKRSQVSSPCSRKKPRMGQQVLDNFFRSHISTDAHSLNSAAQ [P320V] | -0.0867
6 | MRKPRAAVGSGHRKQAASQEGRQKHAKNNSQAKPSACDGLARQPEEVVLQASVSSYHLFRDVAEVTAFRGSLLSWYDQEKRDLPWRRRAEDEMDLDRRAYAVWVSEVMLQQTQVATVINYYTGWMQKWPTLQDLASASLEEVNQLWAGLGYYSRGRRLQEGARKVVEELGGHMPRTAETLQQLLPGVGRYTAGAIASIAFGQATGVVDGNYARVLCRVRAIGADPSSTLVSQQLWGLAQQLVDPARPGDFNQAAMELGATVCTPQRPLCSQCPVESLCRARQRVEQEQLLASGSLSGSPDVEECAPNTGQCHLCLPPSEPWDQTLGVVNFPRKASRKPPREESSATCVLEQPGALGAQILLVQRPNSGLLAGLWEFPSVTWEPSEQLQRKALLQELQRWAGPLPATHLRHLGEVVHTFSHIKLTYQVYGLALEGQTPVTTVPPGARWLTQEEFHTAAVSTAMKKVFRVYQGQQPGTCMGSKRSQVSSPCSRKKPRMGQQVLDNFFRSHISTDAHSLNSAAQ [V211Y] | -0.329
7 | MRKPRAAVGSGHRKQAASQEGRQKHAKNNSQAKPSACDGLARQPEEVVLQASVSSYHLFRDVAEVTAFRGSLLSWYDQEKRDLPWRRRAEDEMDLDRRAYAVWVSEVMLQQTQVATVINYYTGWMQKWPTLQDLASASLEEVNQLWAGLGYYSRGRRWQEGARKVVEELGGHMPRTAETLQQLLPGVGRYTAGAIASIAFGQATGVVDGNVARVLCRVRAIGADPSSTLVSQQLWGLAQQLVDPARPGDFNQAAMELGATVCTPQRPLCSQCPVESLCRARQRVEQEQLLASGSLSGSPDVEECAPNTGQCHLCLPPSEPWDQTLGVVNFPRKASRKPPREESSATCVLEQPGALGAQILLVQRPNSGLLAGLWEFPSVTWEPSEQLQRKALLQELQRWAGPLPATHLRHLGEVVHTFSHIKLTYQVYGLALEGQTPVTTVPPGARWLTQEEFHTAAVSTAMKKVFRVYQGQQPGTCMGSKRSQVSSPCSRKKPRMGQQVLDNFFRSHISTDAHSLNSAAQ [L158W] | -0.991
8 | MRKPRAAVGSGHRKQAASQEGRQKHAKNNSQAKPSACDGLARQPEEVVLQASVSSYHLFRDVAEVTAFRGSLLSWYDQEKRDLPWRRRAEDEMDLDRRAYAVWVSEVMLQQTQVATVINYYTGWMQKWPTLQDLASASLEEVNQLWAGLGYYSRGRRLQEGARKVVEELGGHMPRTAETLQQLLPGVGRYTAGAIASIAFGQATGVVDGNVARVLCRVRAIGADPSSTLVSQQLWGLAQQLVDPARPGDFNQAAMELGATVCTPQRPLCSQCPVESLCRARQRVEQEQLLASGSLSGSPDVEECAPNTGQCHLCLPPSEPWDQTLGVVNFPRKASRKPPREESSATCVLEQPGALGAQILLVQRPNSGLLAGLWEFPSVTWEPSEQKQRKALLQELQRWAGPLPATHLRHLGEVVHTFSHIKLTYQVYGLALEGQTPVTTVPPGARWLTQEEFHTAAVSTAMKKVFRVYQGQQPGTCMGSKRSQVSSPCSRKKPRMGQQVLDNFFRSHISTDAHSLNSAAQ [L387K] | 0.00861
9 | MRKPRAAVGSGHRKQAASQEGRQKHAKNNSQAKPSACDGLARQPEEVVLQASVSSYHLFRDVAEVTAFRGSLLSWYDQEKRDLPWRRRAEDEMDLDRRAYAVWVSEVMLQQTQVATVINYYTGWMQKWPTLQDLASASLEEVNQLWAGLGYYSRGRRLQEGARKVVEELGGHMPRTAETLQQLLPGVGRYTAGAIASIAFGQATGVVDGNVARKLCRVRAIGADPSSTLVSQQLWGLAQQLVDPARPGDFNQAAMELGATVCTPQRPLCSQCPVESLCRARQRVEQEQLLASGSLSGSPDVEECAPNTGQCHLCLPPSEPWDQTLGVVNFPRKASRKPPREESSATCVLEQPGALGAQILLVQRPNSGLLAGLWEFPSVTWEPSEQLQRKALLQELQRWAGPLPATHLRHLGEVVHTFSHIKLTYQVYGLALEGQTPVTTVPPGARWLTQEEFHTAAVSTAMKKVFRVYQGQQPGTCMGSKRSQVSSPCSRKKPRMGQQVLDNFFRSHISTDAHSLNSAAQ [V214K] | -0.957
10 | MRKPRAAVGSGHRKQAASQEGRQKHAKNNSQAKPSACDGLARQPEEPVLQASVSSYHLFRDVAEVTAFRGSLLSWYDQEKRDLPWRRRAEDEMDLDRRAYAVWVSEVMLQQTQVATVINYYTGWMQKWPTLQDLASASLEEVNQLWAGLGYYSRGRRLQEGARKVVEELGGHMPRTAETLQQLLPGVGRYTAGAIASIAFGQATGVVDGNVARVLCRVRAIGADPSSTLVSQQLWGLAQQLVDPARPGDFNQAAMELGATVCTPQRPLCSQCPVESLCRARQRVEQEQLLASGSLSGSPDVEECAPNTGQCHLCLPPSEPWDQTLGVVNFPRKASRKPPREESSATCVLEQPGALGAQILLVQRPNSGLLAGLWEFPSVTWEPSEQLQRKALLQELQRWAGPLPATHLRHLGEVVHTFSHIKLTYQVYGLALEGQTPVTTVPPGARWLTQEEFHTAAVSTAMKKVFRVYQGQQPGTCMGSKRSQVSSPCSRKKPRMGQQVLDNFFRSHISTDAHSLNSAAQ [V47P] | -0.0988
11 | MRKPRAAVGSGHRKQAASQEGRQKHAKNNSQAKPSACDGLARQPEEVVLQASVSSYHLFRDVAEVTAFRGSLLSWYDQEKRDLPWRRRAEDEMDLDRRAYAVWVSEVMLQQTQVATVINYYTGWMQKWPTLQDLASASLEEVNQLWAGLGYYSRGRRLQEGARKVVEELGGHMPRTAETLQQLLPGVGRYTAGAIASIAFGQATGVVDGNVARVLCRVRAIGADPSSTLVSQQLWGLAQQLVDPARPGDFNQAAMELGATVCTPQRPLCSQCPVESLCRARQRVEQEQLLASGSLSGSPDVEECAPNTGQCHLCAPPSEPWDQTLGVVNFPRKASRKPPREESSATCVLEQPGALGAQILLVQRPNSGLLAGLWEFPSVTWEPSEQLQRKALLQELQRWAGPLPATHLRHLGEVVHTFSHIKLTYQVYGLALEGQTPVTTVPPGARWLTQEEFHTAAVSTAMKKVFRVYQGQQPGTCMGSKRSQVSSPCSRKKPRMGQQVLDNFFRSHISTDAHSLNSAAQ [L315A] | -0.104
12 | MRKPRAAVGSGHRKQAASQEGRQKHAKNNSQAKPSACDGLARQPEEVVLQASVSSYHLFRDVAEVTAFRGSLLSWYDQEKRDLPWRRRAEDEMDLTRRAYAVWVSEVMLQQTQVATVINYYTGWMQKWPTLQDLASASLEEVNQLWAGLGYYSRGRRLQEGARKVVEELGGHMPRTAETLQQLLPGVGRYTAGAIASIAFGQATGVVDGNVARVLCRVRAIGADPSSTLVSQQLWGLAQQLVDPARPGDFNQAAMELGATVCTPQRPLCSQCPVESLCRARQRVEQEQLLASGSLSGSPDVEECAPNTGQCHLCLPPSEPWDQTLGVVNFPRKASRKPPREESSATCVLEQPGALGAQILLVQRPNSGLLAGLWEFPSVTWEPSEQLQRKALLQELQRWAGPLPATHLRHLGEVVHTFSHIKLTYQVYGLALEGQTPVTTVPPGARWLTQEEFHTAAVSTAMKKVFRVYQGQQPGTCMGSKRSQVSSPCSRKKPRMGQQVLDNFFRSHISTDAHSLNSAAQ [D96T] | -1.12
